Assay [1] addresses Factor X. The experiment in a line: SPR. In general terms: SPR reads the build-up and loss of mass on a sensor chip optically.
For assay [2], the target named is Factor VIII light chain (A3C1C2 domains). Put plainly: ELISA.
In assay [3] the target is Factor X. The experiment in a line: cross-linking.
Assay [4] deals with Factor X. The experiment in a line: ELISA. On the technique in general: In an ELISA, binding on a coated surface is turned into a signal by an enzyme label.
Assay [5] concerns the target Factor X. The experiment in a line: cross-linking. The source holds these as a separate data set.
The target in assay [6] is Factor X. Put plainly: ELISA. This is another data set of the same source.
Assay [7] addresses Factor X. Put plainly: SPR. This is another data set of the same source.

Where two headings read alike, the source gives them in different places. Ends that are not written are not given here.

As for “A3C1C2 subunit from FVIII variant Thr2012Ala/Leu2013Ala/Phe2014Ala (from UniProt P00451 1709-2351) (domain or fragment)”, the Kd (in general, the equilibrium constant for the complex coming apart) with Factor X [1] worked out at 239 nM.

“A3C1C2 subunit from FVIII variant Leu2015Ala (from UniProt P00451 1709-2351) (domain or fragment)” had a Kd in the assay with Factor X [1] of 45.1 nM.

For “A3C1C2 subunit from FVIII variant Phe2014Ala (from UniProt P00451 1709-2351) (domain or fragment)”, the Kd in the assay with Factor X [1] is 104 nM.

As for “active site-modified activated protein C (DEGR-APC) (enzyme)”, the Ki (in general, the equilibrium dissociation constant of an inhibitor or competing ligand from its target) in assay [2] came out at 82.7 nM.

In the case of “A3C1C2 subunit from recombinant wild type FVIII (from UniProt P00451 1709-2351) (domain or fragment)”, the Kd with Factor X [1] turned out to be 57 nM.

“A3C1C2 subunit from FVIII variant Met2010Ala (from UniProt P00451 1709-2351) (domain or fragment)” yielded a Kd with Factor X [1] of 59.5 nM.

In the case of “A3C1C2 subunit from FVIII variant Val2016Ala (from UniProt P00451 1709-2351) (domain or fragment)”, the Kd in the assay with Factor X [1] is 55.7 nM.

In assay [2], Factor X (natural protein) yielded a Kd of 89.9 nM and a Ki of 154 nM.

“A3C1C2 subunit from FVIII variant Thr2012Ala (from UniProt P00451 1709-2351) (domain or fragment)”: in the assay with Factor X [1], the Kd amounted to 85.8 nM.

In the case of “A3C1C2 subunit from FVIII variant Ser2011Ala (from UniProt P00451 1709-2351) (domain or fragment)”, the Kd with Factor X [1] was found to be 59.4 nM.

As to “Factor VIII light chain (A3C1C2 domains) (domain or fragment)”, the stoichiometry N (commonly a count of units in the complex or per binding partner) with Factor X [3] worked out at 1. Besides, the Kd with Factor X [1] was 165 nM; with Factor X [4], 370 nM.

“A3C1C2 subunit from FVIII variant Thr2012Ala/Phe2014Ala (from UniProt P00451 1709-2351) (domain or fragment)” yielded a Kd with Factor X [1] of 193 nM.

In turn, “A3C1C2 subunit from FVIII variant Leu2013Ala (from UniProt P00451 1709-2351) (domain or fragment)” yielded a Kd with Factor X [1] of 63.9 nM.

B1: biotinylated 2007-2016 peptide (peptide)
peptide: HAGMSTLFLV
modifications: also: biotinylated, position not given here
In the assay with Factor X [5], B1 yielded a stoichiometry N of 1.

B2: synthetic peptide corresponding to FVIII A3 residues 2007-2016 (peptide)
peptide: HAGMSTLFLV
For the molecule B2, in the assay with Factor X [6], the Ki was determined as 152000 nM and the percent inhibition of FVIII LC binding to FX at 800 μM peptide was 80%. The molecule further yielded a Kd with Factor X [7] of 7700 nM.
